Experimental data taken from patent publication US20070009964A1 (MERCK SERONO, published 2007).

Legend:
[1] = target: T1, Human OX40R-IgG1 fusion protein (human, UniProt P43489 29-208); assay: Alphascreen binding assay, increasing OX40L-CD8 with 10 nM OX40R-IgG1; 10 nM OX40-IgG1
T1 construct: range 1-208; Purified on protein G; also called OX40-IgG1; OX40-IgG; not shown: constant region of human IgG1 (hinge region, CH2 and CH3), amino acids 98-330 of SWISSPROT Acc; No. P01857
T1 sequence (looked up): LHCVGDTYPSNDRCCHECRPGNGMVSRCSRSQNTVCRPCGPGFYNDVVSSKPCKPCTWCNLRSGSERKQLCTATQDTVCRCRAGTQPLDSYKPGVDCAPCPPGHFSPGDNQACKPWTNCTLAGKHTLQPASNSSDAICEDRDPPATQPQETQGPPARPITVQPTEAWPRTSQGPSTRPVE

[2] = target: T1, Human OX40R-IgG1 fusion protein; assay: Alphascreen saturation binding, 10 nM OX40R-IgG1, non-specific binding determined with 1 mM suramin
[3] = target: T1, Human OX40R-IgG1 fusion protein; assay: Alphascreen binding assay, increasing OX40L-CD8 with 5 nM OX40R-IgG1; 5 nM OX40-IgG1
[4] = target: T1, Human OX40R-IgG1 fusion protein; assay: Alphascreen competition against OX40L-CD8, IC50 transformed by the Cheng-Prusoff equation
Protocol: (§1) In the standard assay, OX40-IgG₁ and OX40L-CD8 were incubated together for 30 minutes, and then biotinylated anti-CD8 antibody (10 nM) was added. Following another incubation period of 30 minutes, streptavidin donor beads (20 μg/ml) and Protein A acceptor beads (20 μg/ml) were added to each individual well. The plate was counted 1 hour later using a Packard Fusion™ reader (Biosignal Packard) set at a read time of 1 second/well. Owing to the light sensitivity of the donor and acceptor beads, the experiments were carried out under […] and all incubation periods were performed at room temperature. The plate was read at an excitation wavelength of 680 nanometers combined with a shorter emission wavelength of 520-620 nanometers.
(§2) The ability of two known competitors of OX40L-OX40R interactions (untagged recombinant human soluble OX40L and suramin), which are themselves unable to generate an Alphascreen™ signal in this assay in absence of OX40L-CD8, to displace OX40L-CD8 from OX40R-IgG₁ was investigated. […] Increasing concentrations of OX40L (3 μM-0.1 pM) or suramin (1 mM -1 nM) were added to a reaction mixture also containing OX40-IgG₁ (10 nM) and OX40L-CD8 (40 nM). […] These values can be transformed by the Cheng-Prusoff equation (Cheng, Y C and Prusoff, W H, 1973) to Kᵢ values of 2.0 nM for OX40L and 26.3 μM for suramin. […]

[5] = target: T1, Human OX40R-IgG1 fusion protein; assay: Alphascreen competition, soluble OX40L displacing OX40L-CD8 (40 nM) from OX40R-IgG1 (10 nM)
Protocol: as §1, §2

[6] = target: T1, Human OX40R-IgG1 fusion protein; assay: fluorescence quenching spectroscopy of OX40R-IgG1 in solution
Protocol: (§3) The fluorescence quenching assay was performed as previously described (Golabek A et al., 2000). OX40R-IgG₁ (35 micrograms) was dissolved in 500 microliters of PBS and the fluorescence spectum was recorded at 295-420 nanometers with an excitation wavelength of 290 nanometers using a spectrofluorimeter (Perkin Elmer LS50B) with the slits set at 5 nanometers. Fluorescence spectra of human OX40R-IgG₁ were then recorded in the presence of increasing concentrations (5-1000 nM) of P5 and P5-1 peptides after 15 minutes of equilibration. The fluorescence change at 336 nanometers was plotted versus peptide concentration and the resulting curves were analyzed by nonlinear regression fit with Prism® software (GraphPad).
(§4) The affinity of the peptides identified in Example 1 as inhibitor of OX40L-OX40R interaction was evaluated by fluorescence quenching spectroscopy, a technology allowing such measurements in solution, under native conditions and without beads or other supports. This method is based on monitoring the changes in the intrinsic fluorescence of a protein (OX40R-IgG₁) upon its binding with another protein (P5 or P5-1). […]

[7] = target: T1, Human OX40R-IgG1 fusion protein; assay: Alphascreen-based competition assay against OX40L-CD8 on OX40R-IgG1; P5 (amino acids 94-124)
Protocol: (§5) The soluble components (OX40-IgG₁, OX40L-CD8 and biotinylated anti-CD8 antibody) were mixed at the concentration described before for the competition assays with OX40L and suramin (FIG. 4), together with various concentrations of each peptide in a 5 microliter volume into a first addition step. The streptavidin donor and Protein A acceptor beads were added 30 minutes later. The plates were incubated for 2 hours in the dark, at room temperature and with shaking, before reading at a long excitation wavelength of 680 nm combined with a shorter emission wavelength of 520-620 nanometers, as described in Example 1.

[8] = target: T1, Human OX40R-IgG1 fusion protein; assay: fluorescence quenching spectroscopy of OX40R-IgG1 intrinsic fluorescence, non-linear regression
Protocol: as §3, §4

[9] = target: T1, Human OX40R-IgG1 fusion protein; assay: Alphascreen-based competition assay against OX40L-CD8 on OX40R-IgG1; P5-1 (amino acids 107-116)
Protocol: as §5

Human OX40L-murine CD8 (from UniProt P01731 28-196) (ligand)
EC50 [1]: 7.9 nM | Kd [2]: 20.7 nM | EC50 [3]: 7.7 nM

B1: Recombinant human soluble OX40L (ligand)
chain: QVSHRYPRIQSIKVQFTEYKKEKGFILTSQKEDEIMKVQNNSVIINCDGFYLISLKGYFSQEVNISLHYQKDEEPLFQLKKVRSVNSLMVASLTYKDKVYLNVTTDNTSLDDFHVNGGELILIHQNPGEFCVL
notes: also called untagged recombinant human soluble OX40L; not shown: Glutathione-S-Transferase (GST) fusion partner
Ki [4]: 2 nM | IC50 [5]: 5.9 nM

B2: Peptide P5 (amino acids 94-124 of human OX40L) (peptide)
peptide: IINCDGFYLISLKGYFSQEVNISLHYQKDEE
notes: Synthetic peptide (Epytop), purity 85-97%
Kd [6]: ~7.9 nM | Kd [7]: ~10 µM | Kd [8]: 7.96 nM

B3: Peptide P5-1 (amino acids 107-116 of human OX40L) (peptide)
peptide: GYFSQEVNIS
notes: Synthetic peptide (Epytop)
Kd [9]: ~62 µM | Kd [6]: ~24.6 nM | Kd [8]: 24.6 nM
